According to paper PMC4489650, “Aurora-A-Dependent Control of TACC3 Influences the Rate of Mitotic Spindle Assembly” (PLoS Genetics, 2015):
Positions count from the first letter of the chain named. In names and notes the source's numbering stands.

Experiments:
[1] = biological target: T1, TACC3-H6c phospho-mimic mutant (SE: S34, S552 and S558 mutated to glutamic acid) (human, UniProt Q9Y6A5 1-838, S34 to glutamic acid | S552 to glutamic acid | S558 to glutamic acid); test: pull-down; GST co-precipitation: 100 ug GST-AurA-DN (2 uM in the TPX2 gradient experiment, with 5 uM TACC3act-H6c and 1-50 uM His6-TPX2^1-43) immobilised on Gluthathione Sepharose 4B; 100 ug TACC3 or TPX2^1-43 added, 2 hrs at 4 C; 50 mM Tris pH 7.5, 150 mM NaCl, 5 mM MgCl2, 5 mM beta-mercaptoethanol, 0.02% TWEEN 20; SDS-PAGE and anti-His6 blot; conditions: both partners purified
T1 construct: TACC3, human, full length, three Aurora-A phosphorylation sites mutated to glutamic acid; source: recombinant, expressed from pET-44C3, purified; not shown: His6, C-terminal, kept

[2] = biological target: T2, TACC3-H6c (full-length human TACC3 with a C-terminal non-cleavable His-tag) (human, UniProt Q9Y6A5 1-838); test: as above; conditions: both partners purified
T2 construct: TACC3, human, full length; also called full-length TACC3; TACC3-H6c WT; source: recombinant, expressed from pET-44C3, purified; not shown: His6, C-terminal, kept

[3] = biological target: T3, TACC3-H6c phospho-null mutant (SA: S34A, S552A, S558A) (human, UniProt Q9Y6A5 1-838, S34A | S552A | S558A); test: as above; conditions: both partners purified
T3 construct: TACC3, human, full length, three Aurora-A phosphorylation sites mutated to alanine; source: recombinant, expressed from pET-44C3, purified; not shown: His6, C-terminal, kept

[4] = biological target: T4, complex of AurA-DN/TPX2^1-43 (UniProt O14965 122-403; Q9ULW0 1-43, D274N); test: NMR; residue pair 519/520, with TPX2 1-43
[5] = biological target: T5, AurA-DN (unphosphorylated Aurora-A 122–403 D274N) (UniProt O14965 122-403, D274N); test: NMR; residue pair 520/521
T5 sequence: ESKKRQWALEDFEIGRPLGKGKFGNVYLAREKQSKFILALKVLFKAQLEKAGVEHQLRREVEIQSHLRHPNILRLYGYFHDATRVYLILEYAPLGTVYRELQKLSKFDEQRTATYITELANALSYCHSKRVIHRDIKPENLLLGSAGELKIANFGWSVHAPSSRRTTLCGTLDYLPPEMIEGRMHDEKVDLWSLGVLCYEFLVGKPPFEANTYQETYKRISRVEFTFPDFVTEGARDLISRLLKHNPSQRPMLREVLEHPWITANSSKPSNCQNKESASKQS

AurA-DN C290A, C393A = biological target: T6, AurA-DN C290A, C393A (UniProt O14965 122-403, D274N | C290A | C393A); test: SEC; AurA-DN C290A, C393A, TPX2^1-43 and TACC3act alone and in complex on a HiLoad Superdex 200 16/60 column; fractions analysed by SDS-PAGE; conditions: both partners purified
T6 construct: also called Aurora-A kinase domain (SEC); source: recombinant, purified; not further stated
T6 sequence (looked up): T5 sequence with C169A, C272A

[6] = biological target: T7, complex of AurA-DN/TPX2^1-43 (UniProt O14965 122-403; Q9ULW0 1-43, D274N); test: NMR titration; 15N-labelled TACC3act (75 uM constant in titrations) with unlabelled AurA-DN or the AurA-DN/TPX2^1-43 complex at 0-225 uM; 1H-15N HSQC; 20 mM potassium phosphate pH 7.0, 50 mM NaCl, 1 mM DTT, 0.02% sodium azide, 5 mM ADP/MgCl2; chemical shift changes fit to Eq 1; conditions: both partners purified
T7 construct: TPX2, first 43 amino acids; Added as a complex in the NMR titration; source: mixed from the purified recombinant proteins m8 and m12
T7 sequence (looked up) 1: T5 sequence
T7 sequence (looked up) 2: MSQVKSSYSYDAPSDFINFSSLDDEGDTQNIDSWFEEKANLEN

[7] = biological target: T8, AurA-DN (unphosphorylated Aurora-A 122–403 D274N) (UniProt O14965 122-403, D274N); test: as above; conditions: both partners purified
T8 construct: source: recombinant, expressed from pET30TEV, purified (Chelating Sepharose, SEC), dialysed into NMR buffer with 5 mM ADP/MgCl2
T8 sequence (looked up): T5 sequence

[8] = biological target: T4, complex of AurA-DN/TPX2^1-43; test: NMR; residue pair 520/521, with TPX2 1-43
[9] = biological target: T9, Aurora-A 122–403 C290A, C393A (UniProt O14965 122-403, C290A | C393A, labelled with NT-647-NHS dye); test: MST; 50 nM NT-647-labelled Aurora-A 122-403 C290A, C393A; TACC3act-H6c constructs 0.2-3950 uM; 50 mM Tris pH 7.6, 150 mM NaCl, 10 mM MgCl2, 5 mM beta-mercaptoethanol, 0.05% TWEEN 20; 25 C; one-site fit (Eq 2); conditions: both partners purified
T9 construct: also called labelled Aurora-A; source: recombinant, expressed from pET30TEV, purified (Chelating Sepharose, SEC)
T9 sequence (looked up): T5 sequence with N153D, C169A, C272A

B1: GST-AurA-DN (GST fused to Aurora-A catalytic domain 122–403 D274N) (domain or fragment, UniProt O14965 122-403, looked up)
chain: T5 sequence
notes: also called GST-Aurora-A; source: recombinant, expressed from pGEX-cs, purified (Gluthathione Sepharose 4B, SEC); not shown: GST, N-terminal, kept
Q: Does B1 bind [1]?
A: binds

Q: Does B1 bind [2]?
A: binds

Q: Does B1 bind [3]?
A: binds

B2: TACC3act (human TACC3 residues 519–563) (domain or fragment, UniProt Q9Y6A5 519-563, looked up)
chain: ELKEESFRDPAEVLGTGAEVDYLEQFGTSSFKESALRKQSLYLKF
notes: also called ^15N-labelled TACC3act; source: recombinant, expressed from pETM6T1, purified (SEC); 15N- or 15N/13C-labelled for NMR
Q: Which results are given for B2?
A: Kd [4]: 0.6 µM; Kd [5]: 7.5 µM; binding result (AurA-DN C290A, C393A): binds; Kd [6]: 1.1 ± 1.2 µM; Kd [7]: 8.2 ± 0.8 µM; Kd [8]: 1.6 µM

B3: TACC3act-H6c (human TACC3 residues 519–563 with a C-terminal His-tag) (domain or fragment, UniProt Q9Y6A5 519-563, looked up)
chain: B2 chain
notes: also called TACC3act-H6c WT; WT TACC3act; source: recombinant, construct made by the same method as TACC3-H6c, purified; not shown: His6, C-terminal, kept
Q: B3 was tested. Which Kd [9] did it give?
A: 5.7 ± 0.4 µM

B4: TACC3act-H6c F525A (domain or fragment, human, UniProt Q9Y6A5 519-563, looked up)
chain: B2 chain with F7A
notes: also called F525A mutant; source: recombinant, purified; not shown: His6, C-terminal, kept
Q: For B4, which Kd [9] is on record?
A: 152 ± 9.3 µM
